Laboratory results from patent US20120100139A1 (APTEVO RESEARCH AND DEVELOPMENT, published 2012).
Blank lines part the entries; values can stand above or below the binder they belong to.

Assays:
CD86-mIgG (Ancell, Inc) [1] = target: T1, CD86-mIgG (Ancell, Inc) (UniProt P42081 24-247, limits assumed); experiment: SPR (BIAcore T100), CD86-mIgG immobilized on CM5; steady-state equilibrium fit
T1 construct: Bought reagent
T1 sequence (looked up): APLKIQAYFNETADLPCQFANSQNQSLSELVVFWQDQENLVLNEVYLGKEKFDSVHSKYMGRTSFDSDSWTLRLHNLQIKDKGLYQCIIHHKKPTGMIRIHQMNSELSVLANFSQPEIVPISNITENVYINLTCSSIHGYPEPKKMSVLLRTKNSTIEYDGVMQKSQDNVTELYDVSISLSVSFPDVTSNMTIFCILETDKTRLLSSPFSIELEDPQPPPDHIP
Experimental: (§1) SPR measurements were performed on a BIAcore™ T100 SPR (Pharmacia Biotech AB, Uppsala) using HBS-EP+ (GE Healthcare) as a running buffer. […] CTLA4-containing constructs were injected for 150 seconds, at a flow rate of 10 μl/min, in a series of concentrations from 4 nM to 10 μM. Dissociation was monitored for 600 seconds, and the surface was either regenerated by injecting 50 mM sodium citrate, 500 mM sodium chloride, pH 5.0, for 60 seconds (wild type CTLA4) or 10 mM glycine, pH 1.7 (L104E A29Y CTLA4). […] Data were analyzed using BiaEvaluation for the T100 software (version 2.0.1, GE Healthcare).
(§2) SPR measurements were performed as listed above, with the following exceptions: HBS-P+ (GE Healthcare) was used as a running buffer; dissociation was monitored for 1200 seconds; and the surface was regenerated by injecting 10 mM glycine, pH 1.7, for 60 seconds.

CD86-mIgG (Ancell, Inc) [2] = target: T1, CD86-mIgG (Ancell, Inc); experiment: SPR (BIAcore T100), CD86-mIgG immobilized on CM5; second site
Experimental: as §1, §2

CD86-mIgG (Ancell, Inc) [3] = target: T1, CD86-mIgG (Ancell, Inc); experiment: SPR (BIAcore T100), CD86-mIgG immobilized on CM5; first site
Experimental: as §1, §2

[4] = target: T2, Murine CD86-mIgG (R&D Systems, Inc) (murine, UniProt P42082 24-244, limits assumed); experiment: SPR (BIAcore T100), murine CD86-mIgG immobilized on CM5; steady-state equilibrium fit
T2 construct: also called muCD86
T2 sequence (looked up): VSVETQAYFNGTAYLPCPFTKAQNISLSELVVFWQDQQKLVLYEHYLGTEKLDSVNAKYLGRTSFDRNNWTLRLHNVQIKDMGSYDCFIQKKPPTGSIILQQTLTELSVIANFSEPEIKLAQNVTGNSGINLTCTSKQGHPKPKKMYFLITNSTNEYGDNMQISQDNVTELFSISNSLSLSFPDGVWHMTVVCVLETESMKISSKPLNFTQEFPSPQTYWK
Experimental: (§3) SPR measurements were performed on a BIAcore™ T100 SPR (Pharmacia Biotech AB, Uppsala) using HBS-EP+ (GE Healthcare) as a running buffer. Murine CD86-mIgG (25 μg/mL in 10 mM sodium acetate, pH 4.0, R&D Systems, Inc) was directly immobilized onto a CM5 chip using standard amine coupling chemistry (Biacore Amine Coupling Kit, GE Healthcare), with final immobilization levels of 150, 493, and 746 Ru. CTLA4-containing constructs were injected for 150 seconds, at a flow rate of 10 μl/min, in a series of concentrations from 4 nM to 8 μM. Dissociation was monitored for 600 seconds (CTLA4 constructs) or 1200 seconds (GL1 constructs), and the surface was regenerated by injecting 10 mM glycine, pH 1.7, for 60 seconds. […] Data were analyzed using BiaEvaluation for the T100 software (version 2.0.1, GE Healthcare).

[5] = target: T2, Murine CD86-mIgG (R&D Systems, Inc); experiment: SPR (BIAcore T100), murine CD86-mIgG immobilized on CM5; bivalent analyte model, second site
Experimental: as §3

[6] = target: T2, Murine CD86-mIgG (R&D Systems, Inc); experiment: SPR (BIAcore T100), murine CD86-mIgG immobilized on CM5; bivalent analyte model, first site
Experimental: as §3

B1: (IL10 I87A::FUN1-21)-75 xceptor (Fc fusion)
chain: SPGQGTQSENSCTHFPGNLPNMLRDLRDAFSRVKTFFQMKDQLDNLLLKESLLEDFKGYLGCQALSEMIQFYLEEVMPQAENQDPDAKAHVNSLGENLKTLRLRLRRCHRFLPCENKSKAVEQVKNAFNKLQEKGIYKAMSEFDIFINYIEAYITMKIRNLEPKSSDKTHTCPPCPAPEAAGAPSVFLFPPKPKDTLMISRTPEVTCVVVDVSHEDPEVKFNWYVDGVEVHNAKTKPREEQYNSTYRVVSVLTVLHQDWLNGKAYACAVSNKALPAPIEKTISKAKGQPREPQVYTLPPSRDELTKNQVSLTCLVKGFYPSDIAVEWESNGQPENNYKTTPPVLDSDGSFFLYSKLTVDKSRWQQGNVFSCSVMHEALHNHYTQKSLSLSPGQRHNNSSLNTGTQMAGHSPNSQVQLVQSGAEVKKPGASVKVSCKASGYTFTDYNMNWVRQAPGQGLEWMGNIDPYYGGTSYNQKFKGRVTMTRDTSISTAYMELSRLRSDDTAVYYCARWDYRYDDGRAYYVMDFWGQGTTVTVSSGGGGSGGGGSGGGGSGGGGSDIVMTQSPDSLAVSLGERATINCKSSQSVLYSSNQKNYLAWYQQKPGQPPKLLIYWASTRESGVPDRFSGSGSGTDFTLTISSLQAEDVAVYYCHQYLYSWTFGQGTKLEIKR
Kd (CD86-mIgG (Ancell, Inc) [1]): 88.5 nM | Second Site ka (CD86-mIgG (Ancell, Inc) [2]): 0.0198 s⁻¹ | Second Site kd (CD86-mIgG (Ancell, Inc) [2]): 0.0579 s⁻¹ | koff (CD86-mIgG (Ancell, Inc) [3]): 0.000433 s⁻¹ | kon (CD86-mIgG (Ancell, Inc) [3]): 40700 M⁻¹ s⁻¹

B3: GL1 mAb (parent rat anti-murine CD86 monoclonal antibody) (antibody, V domains shown)
VH: EVQLVESAGGLVQPGRSLKLSCAASGFTFSDYYMAWVRQAPTKGLEWVATISHDGSSTYYRDSVKGRFTISRDNAKTILYLQMDSLRSEDTATYFCARQNIMDYWGQGVMVTVSS
VL: DIVMTQTPSSQAVSAGEKVTMSCKSSQSLLYSRDQSNYLAWYQQKPGQSPKLLIYLASTRESGVPDRFIGSGSGTDFTLTISSVQAEDLADYYCQQHYNYPLTFGSGTKLEIK
notes: also called GL1 antibody
Kd [4]: 37.7 nM | Second Site ka [5]: 0.00879 s⁻¹ | Second Site kd [5]: 0.00635 s⁻¹ | koff [6]: 0.000106 s⁻¹ | kon [6]: 78900 M⁻¹ s⁻¹

B5: GL1 PIMS (Fc fusion)
chain: EPKSSDKTHTCPPCPAPEAAGAPSVFLFPPKPKDTLMISRTPEVTCVVVDVSHEDPEVKFNWYVDGVEVHNAKTKPREEQYNSTYRVVSVLTVLHQDWLNGKAYACAVSNKALPAPIEKTISKAKGQPREPQVYTLPPSRDELTKNQVSLTCLVKGFYPSDIAVEWESNGQPENNYKTTPPVLDSDGSFFLYSKLTVDKSRWQQGNVFSCSVMHEALHNHYTQKSLSLSPGNSLFNQEVQIPLTESYSPNSEVQLVESAGGLVQPGRSLKLSCAASGFTFSDYYMAWVRQAPTKGLEWVATISHDGSSTYYRDSVKGRFTISRDNAKTILYLQMDSLRSEDTATYFCARQNIMDYWGQGVMVTVSSGGGGSGGGGSGGGGSGGGGSDIVMTQTPSSQAVSAGEKVTMSCKSSQSLLYSRDQSNYLAWYQQKPGQSPKLLIYLASTRESGVPDRFIGSGSGTDFTLTISSVQAEDLADYYCQQHYNYPLTFGSGTKLEIK
Kd [4]: 78.3 nM | Second Site ka [5]: 0.0431 s⁻¹ | Second Site kd [5]: 0.0977 s⁻¹ | koff [6]: 0.000125 s⁻¹ | kon [6]: 177000 M⁻¹ s⁻¹

B6: GL1 SMIP (Fc fusion)
chain: EVQLVESAGGLVQPGRSLKLSCAASGFTFSDYYMAWVRQAPTKGLEWVATISHDGSSTYYRDSVKGRFTISRDNAKTILYLQMDSLRSEDTATYFCARQNIMDYWGQGVMVTVSSGGGGSGGGGSGGGGSGGGGSDIVMTQTPSSQAVSAGEKVTMSCKSSQSLLYSRDQSNYLAWYQQKPGQSPKLLIYLASTRESGVPDRFIGSGSGTDFTLTISSVQAEDLADYYCQQHYNYPLTFGSGTKLEIKLEPKSSDKTHTCPPCPAPEAAGAPSVFLFPPKPKDTLMISRTPEVTCVVVDVSHEDPEVKFNWYVDGVEVHNAKTKPREEQYNSTYRVVSVLTVLHQDWLNGKAYACAVSNKALPAPIEKTISKAKGQPREPQVYTLPPSRDELTKNQVSLTCLVKGFYPSDIAVEWESNGQPENNYKTTPPVLDSDGSFFLYSKLTVDKSRWQQGNVFSCSVMHEALHNHYTQKSLSLSPG
notes: SMIP containing a single-chain GL1 antibody fragment
Kd [4]: 26.2 nM | Second Site ka [5]: 0.00964 s⁻¹ | Second Site kd [5]: 0.0185 s⁻¹ | koff [6]: 6.2e-05 s⁻¹ | kon [6]: 118000 M⁻¹ s⁻¹

Other lines, results leading:

Kd (CD86-mIgG (Ancell, Inc) [1]): 178 nM | Second Site ka (CD86-mIgG (Ancell, Inc) [2]): 0.011 s⁻¹ | Second Site kd (CD86-mIgG (Ancell, Inc) [2]): 0.0111 s⁻¹ | koff (CD86-mIgG (Ancell, Inc) [3]): 0.000344 s⁻¹ | kon (CD86-mIgG (Ancell, Inc) [3]): 12600 M⁻¹ s⁻¹
B2: (monoIL10-A2 hinge::FUN1-21)-75 xceptor (Fc fusion)
chain: SPGQGTQSENSCTHFPGNLPNMLRDLRDAFSRVKTFFQMKDQLDNLLLKESLLEDFKGYLGCQALSEMIQFYLEEVMPQAENQDPDIKAHVNSLGENLKTLRLRLRRCHRFLPCENGGGSGGKSKAVEQVKNAFNKLQEKGIYKAMSEFDIFINYIEAYITMKIRNLEPPPPPCPPCPAPEAAGAPSVFLFPPKPKDTLMISRTPEVTCVVVDVSHEDPEVKFNWYVDGVEVHNAKTKPREEQYNSTYRVVSVLTVLHQDWLNGKAYACAVSNKALPAPIEKTISKAKGQPREPQVYTLPPSRDELTKNQVSLTCLVKGFYPSDIAVEWESNGQPENNYKTTPPVLDSDGSFFLYSKLTVDKSRWQQGNVFSCSVMHEALHNHYTQKSLSLSPGQRHNNSSLNTGTQMAGHSPNSQVQLVQSGAEVKKPGASVKVSCKASGYTFTDYNMNWVRQAPGQGLEWMGNIDPYYGGTSYNQKFKGRVTMTRDTSISTAYMELSRLRSDDTAVYYCARWDYRYDDGRAYYVMDFWGQGTTVTVSSGGGGSGGGGSGGGGSGGGGSDIVMTQSPDSLAVSLGERATINCKSSQSVLYSSNQKNYLAWYQQKPGQPPKLLIYWASTRESGVPDRFSGSGSGTDFTLTISSLQAEDVAVYYCHQYLYSWTFGQGTKLEIKR
notes: also called monoIL10::FUN1-21

Kd (CD86-mIgG (Ancell, Inc) [1]): 98.6 nM | Second Site ka (CD86-mIgG (Ancell, Inc) [2]): 0.0064 s⁻¹ | Second Site kd (CD86-mIgG (Ancell, Inc) [2]): 0.0387 s⁻¹ | koff (CD86-mIgG (Ancell, Inc) [3]): 0.000128 s⁻¹ | kon (CD86-mIgG (Ancell, Inc) [3]): 158000 M⁻¹ s⁻¹
B4: IL10::FUN1-21 xceptor (Fc fusion)
chain: SPGQGTQSENSCTHFPGNLPNMLRDLRDAFSRVKTFFQMKDQLDNLLLKESLLEDFKGYLGCQALSEMIQFYLEEVMPQAENQDPDIKAHVNSLGENLKTLRLRLRRCHRFLPCENKSKAVEQVKNAFNKLQEKGIYKAMSEFDIFINYIEAYITMKIRNLEPKSSDKTHTCPPCPAPEAAGAPSVFLFPPKPKDTLMISRTPEVTCVVVDVSHEDPEVKFNWYVDGVEVHNAKTKPREEQYNSTYRVVSVLTVLHQDWLNGKAYACAVSNKALPAPIEKTISKAKGQPREPQVYTLPPSRDELTKNQVSLTCLVKGFYPSDIAVEWESNGQPENNYKTTPPVLDSDGSFFLYSKLTVDKSRWQQGNVFSCSVMHEALHNHYTQKSLSLSPGNSLFNQEVQIPLTESYSPNSQVQLVQSGAEVKKPGASVKVSCKASGYTFTDYNMNWVRQAPGQGLEWMGNIDPYYGGTSYNQKFKGRVTMTRDTSISTAYMELSRLRSDDTAVYYCARWDYRYDDGRAYYVMDFWGQGTTVTVSSGGGGSGGGGSGGGGSGGGGSDIVMTQSPDSLAVSLGERATINCKSSQSVLYSSNQKNYLAWYQQKPGQPPKLLIYWASTRESGVPDRFSGSGSGTDFTLTISSLQAEDVAVYYCHQYLYSWTFGQGTKLEIKR

Kd [4]: 86.4 nM | Second Site ka [5]: 0.00943 s⁻¹ | Second Site kd [5]: 0.0182 s⁻¹ | koff [6]: 0.00019 s⁻¹ | kon [6]: 219000 M⁻¹ s⁻¹
B7: GL1::IL10 xceptor (Fc fusion)
chain: EVQLVESAGGLVQPGRSLKLSCAASGFTFSDYYMAWVRQAPTKGLEWVATISHDGSSTYYRDSVKGRFTISRDNAKTILYLQMDSLRSEDTATYFCARQNIMDYWGQGVMVTVSSGGGGSGGGGSGGGGSGGGGSDIVMTQTPSSQAVSAGEKVTMSCKSSQSLLYSRDQSNYLAWYQQKPGQSPKLLIYLASTRESGVPDRFIGSGSGTDFTLTISSVQAEDLADYYCQQHYNYPLTFGSGTKLEIKLEPKSSDKTHTCPPCPAPEAAGAPSVFLFPPKPKDTLMISRTPEVTCVVVDVSHEDPEVKFNWYVDGVEVHNAKTKPREEQYNSTYRVVSVLTVLHQDWLNGKAYACAVSNKALPAPIEKTISKAKGQPREPQVYTLPPSRDELTKNQVSLTCLVKGFYPSDIAVEWESNGQPENNYKTTPPVLDSDGSFFLYSKLTVDKSRWQQGNVFSCSVMHEALHNHYTQKSLSLSPGNSLFNQEVQIPLTESYSPNSSPGQGTQSENSCTHFPGNLPNMLRDLRDAFSRVKTFFQMKDQLDNLLLKESLLEDFKGYLGCQALSEMIQFYLEEVMPQAENQDPDIKAHVNSLGENLKTLRLRLRRCHRFLPCENKSKAVEQVKNAFNKLQEKGIYKAMSEFDIFINYIEAYMTMKIRN
